Experimental data reported in the supplement of paper PMC10567573.

B1: ZNF207 (parent)
chain: FQPQPVQPQQGYIPPMAQPGLPPV

Variants of: B1
Assay: protein stability index of a GFP-peptide fusion (GPS, HEK-293T) (PSI 1-6); higher = more stable
Conditions: c terminus: a fixed tail appended
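Note: lentivirally expressed fusions sorted by FACS into six bins by GFP to DsRed ratio, PSI derived from sequencing read proportions per bin multiplied by bin number.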

Protein stability index, by site and new letter:
Q7: W 2.25; I 3.29; L 3.04; Y 2.5; E 2.98; D 3.26; F 2.72; H 2.82; R 2.83; K 3.04; S 3.5; G 2.78; M 3.21; C 2.88; V 3.63
Q9: D 3.59; Y 2.32; H 3.24; F 2.34; C 2.77; M 2.88; V 3.61; K 2.91; N 2.72; I 2.89; R 3.26; E 3.45; W 1.88; S 3.43; A 3.35; T 3.01; G 2.74; L 2.54
P8: K 3.15; Q 2.95; L 3.19; W 2.31; M 2.47; D 3.32; R 2.61; T 2.91; I 3.1; E 3.22; V 2.92; Y 2.53; S 2.97; A 3.27; G 2.96; H 2.89; N 3.03; F 2.88; C 2.54
I13: Q 3.59; V 3.44; H 3.54; E 3.71; A 3.8; K 2.85; G 3.29; D 3.57; S 3.58; M 2.99; Y 2.88; W 2.56; C 3.33; L 3.52; N 3.17; R 3.16; F 3.4
M16: C 3.08
P14: A 2.96; R 2.81; Y 2.65; G 2.79; V 2.9; M 2.88; L 2.52; C 2.61; Q 2.74; W 1.98; K 2.83; F 2.93; H 2.75; N 2.5; E 2.86; T 2.75; D 3.37; S 3.08; I 2.63
G11: W 2.19; Q 3.18; S 2.8; P 2.74; T 2.6; D 3.63; V 2.56; N 2.93; R 3.21; H 3.21; A 3.03; F 2.45; E 3.69; M 2.66; K 2.89; L 2.65; Y 2.18; C 2.18; I 2.29
Q10: E 3.1; N 3.28; Y 2.64; D 3.54; K 2.98; I 2.12; T 3.34; H 2.62; V 2.04; A 2.84; S 2.86; G 3.39; M 2.81; C 2.5; P 3.07; W 1.95; L 2.16; R 2.79; F 2.31
V6: W 2.62; Y 2.75
Y12: G 3.53; N 3.77; H 3.54; R 3.66; D 3.73; V 3.86; L 3.81; T 3.69; C 3.55; F 2.81; S 3.81; W 2.6; P 3.6; I 3.29; A 3.75; K 3.7; E 3.77; M 3.72; Q 4.03
P15: L 2.72; A 3.13; M 2.62; F 2.3; W 1.73; V 3.23; K 2.81; C 2.45; S 2.87; D 3.04; Q 3.09; R 2.97; E 2.96; N 3.45; G 3.07; Y 2.66; I 2.17; H 2.74; T 3.14
